# In publication PMC4783296, “Structural basis underlying CAC RNA recognition by the RRM domain of dimeric RNA-binding protein RBPMS”:
# Experiments:
# [1] = biological target: RBPMS RRM F27A (human, UniProt Q93062 14-111, F27A); experiment: ITC; ITC: 20 mM Tris-HCl pH 7.5, 100 mM NaCl, 25 C; 0.03-0.05 mM protein in cell, 0.26-0.5 mM RNA in syringe, single-site model; details: protein: recombinant; tags: 6His-SUMO removed with Ulp1; single strand
# [2] = biological target: RBPMS RRM T103A/K104A (human, UniProt Q93062 14-111, T103A;K104A); experiment: as above; details: protein: recombinant; tags: 6His-SUMO removed with Ulp1; single strand
# RBPMS RRM T103A/K104A, sequence (Q93062 14-111 T103A/K104A): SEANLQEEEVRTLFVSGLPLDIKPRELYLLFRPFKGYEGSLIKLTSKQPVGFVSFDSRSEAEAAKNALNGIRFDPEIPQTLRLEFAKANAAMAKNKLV
# [3] = biological target: RBPMS RRM K100E (human, UniProt Q93062 14-111, K100E); experiment: as above; details: protein: recombinant; tags: 6His-SUMO removed with Ulp1; single strand
# RBPMS RRM K100E, sequence (Q93062 14-111 K100E): as the sequence (Q93062 14-111 T103A/K104A) above, with K87E, A90T, A91K counted along it
# [4] = biological target: RBPMS RRM F65A (human, UniProt Q93062 14-111, F65A); experiment: as above; details: protein: recombinant; tags: 6His-SUMO removed with Ulp1; single strand
# RBPMS RRM F65A, sequence (Q93062 14-111 F65A): as the sequence (Q93062 14-111 T103A/K104A) above, with F52A, A90T, A91K counted along it
# [5] = biological target: RBPMS RRM WT (human, UniProt Q93062 14-111); experiment: ITC; approaching 2:1 RRM:RNA; ITC: 20 mM Tris-HCl pH 7.5, 100 mM NaCl, 25 C; 0.03-0.05 mM protein in cell, 0.26-0.5 mM RNA in syringe, single-site model; details: protein: recombinant; tags: 6His-SUMO removed with Ulp1; chain copies: 2; single strand
# RBPMS RRM WT, sequence (Q93062 14-111): as the sequence (Q93062 14-111 T103A/K104A) above, with A90T, A91K counted along it
# [6] = biological target: RBPMS RRM E97A/K100A (human, UniProt Q93062 14-111, E97A;K100A); experiment: ITC; Kd printed only in figure; ITC: 20 mM Tris-HCl pH 7.5, 100 mM NaCl, 25 C; 0.03-0.05 mM protein in cell, 0.26-0.5 mM RNA in syringe, single-site model; details: protein: recombinant; tags: 6His-SUMO removed with Ulp1; single strand
# RBPMS RRM E97A/K100A, sequence (Q93062 14-111 E97A/K100A): as the sequence (Q93062 14-111 T103A/K104A) above, with E84A, K87A, A90T, A91K counted along it
# RBPMS RRM F27A, sequence (Q93062 14-111 F27A): as the sequence (Q93062 14-111 T103A/K104A) above, with F14A, A90T, A91K counted along it
binder,measurement,setting,value
GCACUUUCAACUUCACU (ssRNA) [ETF1 17-nt RNA],binding result,[1],no binding
same,binding result,[2],no binding
same,binding result,[3],no binding
same,binding result,[4],no binding
same,Kd,[5],900 nM
same,binding signal,[6],~10 fold reduced affinity vs WT
